Measured values: paper PMC12714742, “A small periplasmic protein governs broad physiological adaptations in Vibrio cholerae via regulation of the DbfRS two-component system” (Nature Communications, 2025)

B1: DbfS sensory domain, DbfS^SD-6×His (residues 43 to 171) (domain or fragment)
chain: NLIHQYLLEDVQNQLQLSMDEITANLEANPQGQLTLTTRLADPRFTQPYSGLYWSATLGDQTLRSRSLWDRFLTEETHVHGTIYLGAKEESLIVLKRTVYLPEFSQPITITIGLDDAPLKATLQRVSKE
notes: DbfS, sensor histidine kinase of the DbfRS two-component system of Vibrio cholerae (gene vc_1639); periplasmic sensory domain, residues 43 to 171; The vector is pET-15b; also called unlabeled DbfS; VC_1639; source: E. coli BL21 (DE3), pET-15b, purified (Ni-NTA)
B2: DbfQ, processed (residues 32 to 135, excluding the secretion signal), 6×His tag cleaved (natural protein)
chain: DNKVRDWEQGSYREGTQIEIDEDQDDVYRAVQKGLIRPFAELYATVDQQLNGRLIKVELDEDDDEWIYELKLVYDNQVFRVEYNAATLELMSIRGRNVIRAIKK
modifications: in the MST experiments only: covalently labeled with an amine-reactive Red-NHS dye
notes: DbfQ, small periplasmic PepSY-domain protein of Vibrio cholerae (135-amino-acid precursor, gene vc_1637); processed form, residues 32 to 135 without the secretion signal; also called cleaved DbfQ; DbfQ (6×His tag-cleaved)

Assays:
[1] = biological target: B2; assay: MST; titration to saturation for stoichiometry: DbfQ-NHS 100 nM, unlabeled DbfS 0 nM to 40,000 nM, 25 °C; conditions: both partners purified
[2] = biological target: B1; assay: MST; Red-NHS-labeled DbfQ constant at 20 nM, unlabeled DbfS 0.49 nM to 16,105 nM; buffer M (20 mM MES, 100 mM NaCl, 10% glycerol) with 0.05% Tween 20, pH 7.5, 25 °C; 1:1 binding model (PALMIST); conditions: both partners purified

| Binder | stoichiometry N [1] | Kd [2] |
| --- | --- | --- |
| B1 | 1 | – |
| B2 | – | 30 nM |
